In patent publication US20180311311A1 (Pieris, published 2018):

How the values were obtained:
[1] = molecular target: T1, Hepcidin-25 containing a C-terminal biotin group (human, C-terminal biotin group); test: solution competition ECL assay: 25 pM Hepcidin-25-C-bio pre-incubated with the conjugate, remaining free Hepcidin-25-C-bio captured on plate-coated antibody 12B9; STDV 14 pM, mean of n=5
T1 construct: also called Hepcidin-25-C-bio; biotinylated hepcidin
T1 peptide: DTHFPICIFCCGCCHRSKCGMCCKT
Method: (§1) The binding affinity of the hNGAL mutein having the sequence of SEQ ID NO: 2 was compared to the binding affinity of the hNGAL mutein having the sequence of SEQ ID NO: 1 linked to PEG12, PEG20, PEG30 or PEG40 in a solution competition electrochemiluminescence (ECL) assay. A defined molar concentration of Hepcidin-25 containing a C-terminal biotin group (25 pM, Hepcidin-25-C-bio) was incubated with different concentrations of the lipocalin muteins for 30 min. at room temperature. The solution was then transferred to an ECL plate coated with the human hepcidin specific monoclonal antibody 12B9 as described herein (and disclosed in WO2008/097461) to measure the remaining concentration of free Hepcidin-25-C-bio in the solution. 12B9-bound Hepcidin-25-C-bio was detected via the Streptavidin sulfotag detection reagent on the Meso-Scale ECL platform and the concentration determined via a Hepcidin-25-C-bio standard curve. […] The assay, for example, was able to distinguish the binding affinity of one lipocalin mutein (SEQ ID NO: 2) from the binding affinity of another lipocalin mutein (SEQ ID NO: 3). Furthermore, it allowed a direct comparison of different high affinities of the lipocalin muteins as well as conjugates having PEG chains of different length.

[2] = molecular target: T1, Hepcidin-25 containing a C-terminal …; test: solution competition ECL assay: 25 pM Hepcidin-25-C-bio pre-incubated with the conjugate, remaining free Hepcidin-25-C-bio captured on plate-coated antibody 12B9; STDV 10 pM, mean of n=5
Method: as §1

Cynomolgus hepcidin 25 [3] = molecular target: T2, Cynomolgus hepcidin 25 (Cynomolgus monkey, UniProt A7XEI3 60-84, not fully specified); test: surface plasmon resonance
T2 construct: mature; also called Cynomolgous hepcidin 25
T2 peptide: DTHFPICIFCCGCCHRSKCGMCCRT

Hepcidin-25 [4] = molecular target: T3, Hepcidin-25 (human); test: surface plasmon resonance (Biacore), Hepcidin-25 as analyte, tested side by side with cynomolgus hepcidin 25 in the same assay format; N=3
T3 construct: also called Hepc25; mature form of human hepcidin
T3 peptide: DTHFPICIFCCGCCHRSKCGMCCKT

Hepcidin-25 [5] = molecular target: T3, Hepcidin-25; test: surface plasmon resonance (Biacore T200, 25 °C), mutein amine-coupled to a CM5 chip, Hepcidin-25 as analyte, 1:1 binding model; N=6
Cynomolgus hepcidin 25 [6] = molecular target: T2, Cynomolgus hepcidin 25; test: surface plasmon resonance (Biacore), cynomolgus hepcidin 25 as analyte, tested side by side with Hepcidin-25 in the same assay format; N=3
[7] = molecular target: T4, HSA (Sigma Life sciences, A1653) (human, UniProt P02768 25-609); test: SPR (Biacore T200), mutein immobilized on CM5 chip, analyte in solution
T4 construct: Printed only as the abbreviation HSA
T4 sequence (P02768 25-609): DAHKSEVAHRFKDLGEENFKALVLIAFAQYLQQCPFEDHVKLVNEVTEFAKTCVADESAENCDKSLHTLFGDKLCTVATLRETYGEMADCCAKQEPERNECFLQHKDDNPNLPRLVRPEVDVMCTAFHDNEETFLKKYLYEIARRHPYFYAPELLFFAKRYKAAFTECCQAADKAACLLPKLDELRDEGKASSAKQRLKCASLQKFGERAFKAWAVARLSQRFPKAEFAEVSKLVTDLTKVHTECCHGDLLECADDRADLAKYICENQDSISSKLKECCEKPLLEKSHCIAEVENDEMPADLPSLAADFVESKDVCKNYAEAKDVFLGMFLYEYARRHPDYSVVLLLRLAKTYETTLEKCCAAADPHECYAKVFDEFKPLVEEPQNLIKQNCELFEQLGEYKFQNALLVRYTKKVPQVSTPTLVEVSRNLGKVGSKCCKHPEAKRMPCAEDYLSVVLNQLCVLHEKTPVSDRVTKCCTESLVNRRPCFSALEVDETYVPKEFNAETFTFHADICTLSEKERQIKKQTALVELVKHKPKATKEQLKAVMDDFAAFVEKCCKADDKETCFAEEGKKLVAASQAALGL
Method: (§2) The affinity and binding specificity of a lipocalin mutein was determined in a kinetic assay using surface plasmon resonance. The hepcidin-specific lipocalin mutein having the sequence of SEQ ID NO: 1 and the hNGAL lipocalin having the sequence of SEQ ID NO: 4 were immobilized to a level of 750-1100 resonance units (RU) on a CM5 sensor chip (GE Healthcare, BR-1005-30) using an amine coupling kit (GE Healthcare, BR-1000-50). Residual activated groups were saturated with ethanolamine. The reference channels were treated with EDC/NHS following ethanolamine (blank immobilization). Dilutions of Hepcidin-25 (Peptallova), Fe-enterobactin (Genaxxon Bioscience, S4035.0001), ß-defensin (Sigma Aldrich, D9565), VEGF₈₋₁₀₉ (Pieris, truncated VEGF) and HSA (Sigma Life sciences, A1653) in HBS-EP+ buffer (GE Healthcare, BR-1006-69) were applied to the prepared chip surfaces. The following parameters were used for the binding assay: contact time 60 s, dissociation time 600 s, flow rate 30 μL/min. All measurements were performed on a Biacore T200 instrument (GE Healthcare) at 25° C. […] Prior to the protein measurements three startup cycles were performed for conditioning purposes. Data were evaluated with Biacore T200 Evaluation software (V 1.0). Double referencing was used. The 1:1 Binding model was used to fit the raw data. No binding to the reference channel was detected for all of the targets. […] The bacterial siderophor Fe-enterobactin was selected for this analysis as it constitutes one of the natural ligands of the lipocalin that the lipocalin mutein was derived from.

[8] = molecular target: T5, ß-defensin (Sigma Aldrich, D9565) (UniProt P60022 33-68); test: as above
T5 construct: also called mammalian antimicrobial 36 amino acid peptide ß-defensin
T5 peptide (looked up): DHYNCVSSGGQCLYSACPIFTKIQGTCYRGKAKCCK
Method: as §2

[9] = molecular target: T6, VEGF8-109 (Pieris, truncated VEGF) (UniProt P15692 214-315); test: as above
T6 construct: range 8-109; By custom it is counted on mature VEGF-A, not on the precursor
T6 sequence (looked up): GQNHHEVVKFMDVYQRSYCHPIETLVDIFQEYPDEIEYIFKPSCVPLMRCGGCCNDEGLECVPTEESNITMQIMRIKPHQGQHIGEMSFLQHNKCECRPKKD
Method: as §2

[10] = molecular target: T1, Hepcidin-25 containing a C-terminal …; test: solution competition ECL assay: 25 pM Hepcidin-25-C-bio pre-incubated with the conjugate, remaining free Hepcidin-25-C-bio captured on plate-coated antibody 12B9; STDV 6 pM, mean of n=6
Method: as §1

[11] = molecular target: T1, Hepcidin-25 containing a C-terminal …; test: solution competition ECL assay: 25 pM Hepcidin-25-C-bio pre-incubated with the conjugate, remaining free Hepcidin-25-C-bio captured on plate-coated antibody 12B9; STDV 11 pM, mean of n=5
Method: as §1

[12] = molecular target: T1, Hepcidin-25 containing a C-terminal …; test: solution competition ECL assay: 25 pM Hepcidin-25-C-bio pre-incubated with the mutein, remaining free Hepcidin-25-C-bio captured on plate-coated antibody 12B9; STDV 23 pM, mean of n=6
Method: as §1

Hepcidin-25 [13] = molecular target: T3, Hepcidin-25; test: SPR (Biacore T200), hNGAL immobilized on CM5 chip, analyte in solution
Method: (§3) The reference channels were treated with EDC/NHS following ethanolamine (blank immobilization). Dilutions of Hepcidin-25 (Peptallova), Fe-enterobactin (Genaxxon Bioscience, S4035.0001), ß-defensin (Sigma Aldrich, D9565), VEGF₈₋₁₀₉ (Pieris, truncated VEGF) and HSA (Sigma Life sciences, A1653) in HBS-EP+ buffer (GE Healthcare, BR-1006-69) were applied to the prepared chip surfaces. The following parameters were used for the binding assay: contact time 60 s, dissociation time 600 s, flow rate 30 μL/min. All measurements were performed on a Biacore T200 instrument (GE Healthcare) at 25° C. […] Prior to the protein measurements three startup cycles were performed for conditioning purposes. Data were evaluated with Biacore T200 Evaluation software (V 1.0). Double referencing was used. The 1:1 Binding model was used to fit the raw data. No binding to the reference channel was detected for all of the targets. […] The bacterial siderophor Fe-enterobactin was selected for this analysis as it constitutes one of the natural ligands of the lipocalin that the lipocalin mutein was derived from. […] HSA and VEGF were used as example of non-related proteins. The hNGAL lipocalin, immobilized in an identical fashion on a CM5 chip compared to the lipocalin mutein was used as positive control for the Fe-enterobactin analyte. As described in the literature, the hNGAL lipocalin bound Fe-enterobactin with subnanomolar affinity, whereas none of the other analytes including hepcidin were bound.

[14] = molecular target: T4, HSA (Sigma Life sciences, A1653); test: as above
Method: as §3

[15] = molecular target: T5, ß-defensin (Sigma Aldrich, D9565); test: as above
Method: as §3

[16] = molecular target: T6, VEGF8-109 (Pieris, truncated VEGF); test: as above
Method: as §3

B1: hNGAL mutein having the sequence of SEQ ID NO: 1 linked to PEG12 (designed binder)
chain: QDSTSDLIPAPPLSKVPLQQNFQDNQFHGKWYVVGLAGNEVLREDKDPMKMWATIYELKEDKSYNVTIVMPLAEKCEYLFQTFVPGCQPGEFTLGGIKSGPGRTSGLVRVVSTNYNQHAMVFFKVVWQNREVFWVTLYGRTKELTSELKENFIRFSKSLGLPENHIVFPVPIDQCIDG
modifications: linear PEG12 (PEG-maleimide) on the free Cys at position 87
notes: also called PEG12 conjugate
B1 showed an IC50 [1] of 0.048 nM.

B2: hNGAL mutein having the sequence of SEQ ID NO: 1 linked to PEG40 (designed binder)
chain: QDSTSDLIPAPPLSKVPLQQNFQDNQFHGKWYVVGLAGNEVLREDKDPMKMWATIYELKEDKSYNVTIVMPLAEKCEYLFQTFVPGCQPGEFTLGGIKSGPGRTSGLVRVVSTNYNQHAMVFFKVVWQNREVFWVTLYGRTKELTSELKENFIRFSKSLGLPENHIVFPVPIDQCIDG
modifications: branched PEG40 (PEG-maleimide) on the free Cys at position 87
notes: also called PEG40 conjugate
Binder B2 has an IC50 [2] of 0.054 nM, a Kd (Cynomolgus hepcidin 25 [3]) of 0.066 nM and a koff (Cynomolgus hepcidin 25 [3]) of 0.000245 s⁻¹. It also gave a kon (Cynomolgus hepcidin 25 [3]) of 3.74e+06 M⁻¹ s⁻¹.

B3: hepcidin-specific lipocalin mutein (hNGAL mutein) having the sequence of SEQ ID NO: 1 (designed binder)
chain: QDSTSDLIPAPPLSKVPLQQNFQDNQFHGKWYVVGLAGNEVLREDKDPMKMWATIYELKEDKSYNVTIVMPLAEKCEYLFQTFVPGCQPGEFTLGGIKSGPGRTSGLVRVVSTNYNQHAMVFFKVVWQNREVFWVTLYGRTKELTSELKENFIRFSKSLGLPENHIVFPVPIDQCIDG
notes: also called the lipocalin mutein; hNGAL mutein having a free cysteine residue at amino acid position 87
B3 gave a Kd (Hepcidin-25 [4]) of 0.1 nM, a Kd (Hepcidin-25 [5]) of 0.07 nM and a koff (Hepcidin-25 [5]) of 0.0002 s⁻¹. The kon (Hepcidin-25 [5]) was 3.8e+06 M⁻¹ s⁻¹, the Kd (Cynomolgus hepcidin 25 [6]) was 0.07 nM and the binding result [7] was “no binding”. B3: no binding [8]; no binding [9].

B4: hNGAL mutein having the sequence of SEQ ID NO: 1 linked to PEG30 (designed binder)
chain: QDSTSDLIPAPPLSKVPLQQNFQDNQFHGKWYVVGLAGNEVLREDKDPMKMWATIYELKEDKSYNVTIVMPLAEKCEYLFQTFVPGCQPGEFTLGGIKSGPGRTSGLVRVVSTNYNQHAMVFFKVVWQNREVFWVTLYGRTKELTSELKENFIRFSKSLGLPENHIVFPVPIDQCIDG
modifications: linear PEG30 (PEG-maleimide) on the free Cys at position 87
notes: also called PEG30 conjugate; lipocalin-mutein-PEG30 conjugate
Work on B4 yielded a Kd (Cynomolgus hepcidin 25 [3]) of 0.066 nM and an IC50 [10] of 0.058 nM.

B5: hNGAL mutein having the sequence of SEQ ID NO: 1 linked to PEG20 (designed binder)
chain: QDSTSDLIPAPPLSKVPLQQNFQDNQFHGKWYVVGLAGNEVLREDKDPMKMWATIYELKEDKSYNVTIVMPLAEKCEYLFQTFVPGCQPGEFTLGGIKSGPGRTSGLVRVVSTNYNQHAMVFFKVVWQNREVFWVTLYGRTKELTSELKENFIRFSKSLGLPENHIVFPVPIDQCIDG
modifications: linear PEG20 (PEG-maleimide) on the free Cys at position 87
notes: also called PEG20 conjugate
Binder B5 has an IC50 [11] of 0.047 nM.

B6: hNGAL mutein having the sequence of SEQ ID NO: 2 (designed binder)
chain: QDSTSDLIPAPPLSKVPLQQNFQDNQFHGKWYVVGLAGNEVLREDKDPMKMWATIYELKEDKSYNVTIVMPLAEKCEYLFQTFVPGSQPGEFTLGGIKSGPGRTSGLVRVVSTNYNQHAMVFFKVVWQNREVFWVTLYGRTKELTSELKENFIRFSKSLGLPENHIVFPVPIDQCIDG
notes: Non-PEGylated mutein with serine at position 87
In the case of B6, the IC50 [12] is reported as 0.056 nM.

B7: hNGAL lipocalin having the sequence of SEQ ID NO: 4 (other)
chain: QDSTSDLIPAPPLSKVPLQQNFQDNQFHGKWYVVGLAGNAILREDKDPQKMYATIYELKEDKSYNVTSVLFRKKKCDYWIRTFVPGSQPGEFTLGNIKSYPGLTSYLVRVVSTNYNQHAMVFFKKVSQNREYFKITLYGRTKELTSELKENFIRFSKSLGLPENHIVFPVPIDQCIDG
notes: also called human neutrophil gelatinase-associated lipocalin; lipocalin 2
B7: no binding (Hepcidin-25 [13]); no binding [14]; no binding [15]. B7: no binding [16].
